From publication PMC5149402 (Structure (London, England : 1993), 2016)
Numbering of substitutions follows the chain as printed.

B1: rat Neurexin-1α (+SS4), domains LNS2 to LNS6 (domain or fragment)
chain: not shown
B2: rat Cerebellin-1 C34,38S double mutant (trimer) (natural protein, UniProt P63182 22-193, looked up)
chain: QNETEPIVLEGKSLVVSDSNPTSDPTGTALGISVRSGSAKVAFSAIRSTNHEPSEMSNRTMIIYFDQVLVNIGNNFDSERSTFIAPRKGIYSFNFHVVKVYNRQTIQVSLMLNGWPVISAFAGDQDVTREAASNGVLIQMEKGDRAYLKLERGNLMGGWKYSTFSGFLVFPL
B3: full-length rat Cerebellin-1, wild type (hexamer) (natural protein, UniProt P63182 22-193, looked up)
chain: B2 chain with S13C, S17C

Key:
[1] = biological target: B3; assay: ITC
SEC = biological target: the molecule itself; assay: SEC
[2] = biological target: rat Neurexin-1β (+SS4), residues S48 to P292 (β-unique N-terminal region plus LNS6) (rat, UniProt Q63373 48-292); assay: ITC
rat Neurexin-1β (+SS4), residues S48 to P292 (β-unique N-terminal region plus LNS6), sequence (Q63373 48-292): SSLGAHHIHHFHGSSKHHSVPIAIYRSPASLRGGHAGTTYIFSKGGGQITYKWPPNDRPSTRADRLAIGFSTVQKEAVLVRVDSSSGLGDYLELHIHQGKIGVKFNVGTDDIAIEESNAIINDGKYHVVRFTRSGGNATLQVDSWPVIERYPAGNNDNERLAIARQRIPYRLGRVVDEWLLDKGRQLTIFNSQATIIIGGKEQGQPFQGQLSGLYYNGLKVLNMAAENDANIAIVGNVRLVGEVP

non-reducing SDS-PAGE = biological target: the molecule itself; assay: non-reducing SDS-PAGE

B1
Kd [1]: 35 nM | stoichiometry N [1]: 0.912 ± 0.045

B2
stoichiometry N (SEC): 3

B3
Kd [2]: 47 nM | stoichiometry N (non-reducing SDS-PAGE): 2
